# In publication PMC6395731:
# Columns and labels:
# Experiment in all cases: EMSA
# [1] = tested on: XRCC1 full length (Homo sapiens); conditions: EMSA: 5 nM DNA, 12 mM Tris pH 8.0, 100 mM NaCl, 20 mM KCl, 3 mM MgCl2, 1 mM EDTA, 0.1% CHAPS, 10 mM 2-mercaptoethanol, 8.5% glycerol, BSA (0.02 mg/mL), room …
# [2] = tested on: XRCC1 219-633 P1/3-YFP-NLS (Homo sapiens); conditions: 2 uM protein; EMSA: 5 nM DNA, 12 mM Tris pH 8.0, 100 mM NaCl, 20 mM KCl, 3 mM MgCl2, 1 mM EDTA, 0.1% CHAPS, 10 mM 2-mercaptoethanol, 8.5% glycerol, BSA (0.02 mg/mL), room …
# [3] = tested on: XRCC1 219-415 (CDB) (Homo sapiens); conditions: EMSA: 5 nM DNA, 12 mM Tris pH 8.0, 100 mM NaCl, 20 mM KCl, 3 mM MgCl2, 1 mM EDTA, 0.1% CHAPS, 10 mM 2-mercaptoethanol, 8.5% glycerol, BSA (0.02 mg/mL), room …
# [4] = tested on: XRCC1 219-633 (Homo sapiens); conditions: EMSA: 5 nM DNA, 12 mM Tris pH 8.0, 100 mM NaCl, 20 mM KCl, 3 mM MgCl2, 1 mM EDTA, 0.1% CHAPS, 10 mM 2-mercaptoethanol, 8.5% glycerol, BSA (0.02 mg/mL), room …
substance,measurement,setting,value
39 bp duplex,Kd,[1],620 nM
same,binding signal (% of wild type),[2],6
same,Kd,[3],670 nM
same,Kd,[4],700 nM
